This note sets out measurements from the DeepSol protein solubility set.

A short description of this data set: soluble on expression in E. coli; label from the status in PepcDB or PDB records.
As to “MGSSHHHHHHGGTGENLYFQGGSGDLLHFISLVIDLRDYPGYATCIRATEYPGLALCEYNAVAGMRYTVPLGYAASAVYFYLYHRPRLSFADRSLTKLHHYFYPSAGYSTPLGIIGGVICGAAECVQGLTPAALEATAAREKAAAVMAAEQYSQRHRAVKERLKAEQSFASKALAWLQLCEDPVQAELARMGLGEDSIAWETLLVPQGYLWTQLHSVVHDPARYRGYEAPVATGAAVPTSADERLSQPSGGANTPCPSPSGVLSLSRAYFTKPQVDAVVSRIGTLRTSPEEDRWMRSAGRCGAYGVFGMLLTWNSGGALFRAQMGLGLGVVIAGLASATRLDEVFAHL”, the “soluble on expression in E. coli” value is “not soluble”.
The same measure for “MGSSHHHHHHGGTGENLYFQGGSGSRFYTAKEVREHAFHDDAYVSLNGKVLDLTPLIAAYKEMPKFAHLAKPLVQVAGTDISHWWDAEANDLRSCVDVNSGMRTYAMPLGRVPHMPTIYPDSNIDLNYDIPWWKDPQYIIGALTSRTRRIRIVNTLTGDETTLDVCAEETLEELLRERYLSINAHARSYTWVRLDPDPRELDMSRTLEDNGIHDEADSFEDLGLNADYYIPAIHLYYNDDLTEA”: “soluble”; for “MGSSHHHHHHGKTIFVIVPTNEEQVAFLEALAKQDELNFDWQNPPTEPGQPVVILIPSDMVEWFLEMLKAKGIPFTVYVEEGGSENLYFQGGGGGGAASLGDFGQEYQAIMESAGKGFGMLYRDMTAPPASYQWECVEDLSLQYSVAYASLTEPYTVNVLTSMITVTRTESTPGVSYNLIGIACTYDGNCGDLKRGNLLTFSLRKDLIIIVTGSVLSNGITNFLPVSYYVVQLASSCSSANIANVTRPFSVGASSVWMQLWQ”: “not soluble”.
The value for “MGSSHHHHHHGKTIFVIVPTNEEQVAFLEALAKQDELNFDWQNPPTEPGQPVVILIPSDMVEWFLEMLKAKGIPFTVYVEEGGSENLYFQGGGGGGLASGSSSAEGGAKRFSRQQIIQHVKKSLLYTAFDVRWVPQTASFAVVGQYPNNHGALSVYQLHHGDVQPTVEVRLPHPLKCCTFGHNISFSSSGSGSGGNSSSITAANATMNQIATGDFAGSLQIFDLSRLGSTPPSAPNALSDVTAASVLHIPHAHESIINAIDGARYSGPPEVATGSRDGSVKVWDTRQSNKPVVSLNPADPARARDCWTVRLGNSFDPDERVVAAGYDNGDVKIFDLRTQKMLHEMHVNNGVCDLEFDRPDIPMNKLLVSSLEGRVRCYDMRTLHPKLGYAYVEERVSEGTVWCSRALPQNREIFLSGGGGELTLCLYKYPPERTLKDGDGLQRGVAGAVEELNKAKIGDQPINAMDWNRSKEGLAVCASFDQSIRVMLVTKLGLLS” was “not soluble”; that for “MGSSHHHHHHGMASMTGGQQMGRDLYDDDDKDPSSRSMAKLTKPKTEGILHKGQSLYEYLDARVLTSKPFGAAGDATTDDTEVIAASLNSQKAVTISDGVFSSSGINSNYCNLDGRGSGVLSHRSSTGNYLVFNNPRTGRLSNITVESNKATDTTQGQQVSLAGGSDVTVSDVNFSNVKGTGFSLIAYPNDAPPDGLMIKGIRGSYSGYATNKAAGCVLADSSVNSLIDNVIAKNYPQFGAVELKGTASYNIVSNVIGADCQHVTYNGTEGPIAPSNNLIKGVMANNPKYAAVVAGKGSTNLISDVLVDYSTSDARQAHGVTVEGSDNVINNVLMSGCDGTNSLGQRQTATIARFIGTANNNYASVFPSYSATGVITFESGSTRNFVEVKHPGRRNDLLSSASTIDGAATIDGTSNSNVVHAPALGQYIGSMSGRFEWRIKSMSLPSGVLTSADKYRMLGDGAVSLAVGGGTSSQVRLFTSDGTSRTVSLTNGNVRLSTSSTGYLQLGADAMTPDSTGTYALGSASRAWSGGFTQAAFTVTS” was “soluble”; that for “MGSSHHHHHHHSSGLVPRGSHMMRKRARIIYNPTSGKEQFKRELPDALIKLEKAGYETSAYATEKIGDATLEAERAMHENYDVLIAAGGDGTLNEVVNGIAEKPNRPKLGVIPMGTVNDFGRALHIPNDIMGALDVIIEGHSTKVDIGKMNNRYFINLAAGGQLTQVSYETPSKLKSIVGPFAYYIKGFEMLPQMKAVDLRIEYDGNVFQGEALLFFLGLTNSMAGFEKLVPDAKLDDGYFTLIIVEKSNLAELGHIMTLASRGEHTKHPKVIYEKAKAINISSFTDLQLNVDGEYGGKLPANFLNLERHIDVFAPNDIVNEELINNDHVDDNLIEE” was “soluble”.
The value for “MGSSHHHHHHSSGLVPRGSHMAKVNAFSKKIGWIEFITGPMFAGKTAELIRRLHRLEYADVKYLVFKPKIDTRSIRNIQSRTGTSLPSVEVESAPEILNYIMSNSFNDETKVIGIDEVQFFDDRICEVANILAENGFVVIISGLDKNFKGEPFGPIAKLFTYADKITKLTAICNECGAEATHSLRKIDGKHADYNDDIVKIGCQEFYSAVCRHHHKVPNRPYLNSNSEEFIKFFKNKKRNKNI” was “soluble”; that for “MGSSHHHHHHSSGLVPRGSHMDTKIGLEVHFQLNTGKLFCRCPVEQSSGELMRFSRKLHISASELGNIDAAASYESMRSRSFQYVVTDNSCLVEMDEEPPKTPDERAIATAISVSKALNCDIVDHITYMRKIVIDGSNTTGFQRTAIVGINGHIETSKGPVRISTVCLEEDAARKIEEIGNTVVYSLDRLGIPLIEISTEPDIVDEDHAVEVARSIGYIVISTGNARHAVDAVRQDVNFSMGYGRVEIKGVSKLTQIRDVIRYEKERQENLRAAVDLIKSRGGLDRVSFNLKDVSDLFAGTKSKIIRSGIESGGVYAGILKNMAGTLKNGKLRMGKEIADLVRSYGIKGVMHSDELPGYGLTQDEVEALYRYLGKGDNDAVLLIAINQSRVKMIENSIFDRIQKIISMDLSETRGPAGEETVFLRPMPGKDRMYPETDIPVIKVDSKLMEMSSSIKPRTYAEVVQDLVDRYGISKQNAEYIASEMVVDAFRNIAEFVEAREAARILTQIVPDLERRTKKIIDHDRIIELCRRSKDLHFDRYQLEMALEILYERDDVASVLGDSRLKELSREEIKSIIREILSSGRNATQNSIIALIKEKTERVFDPRVAMECFNEVKNKNNVF” was “soluble”; that for “MGSSHHHHHHSSGLVPRGSHMKLYIIGAGPGDPDLITVKGLKLLQQADVVLYADSLVSQDLIAKSKPGAEVLKTAGMHLEEMVGTMLDRMREGKMVVRVHTGDPAMYGAIMEQMVLLKREGVDIEIVPGVTSVFAAAAAAEAELTIPDLTQTVILTRAEGRTPVPEFEKLTDLAKHKCTIALFLSSTLTKKVMKEFINAGWSEDTPVVVVYKATWPDEKIVRTTVKDLDDAMRTNGIRKQAMILAGWALDPATPWLSGLGENPAIRAMFVAHLHQALNMAVEEAA” was “soluble”.
Regarding “MGSSHHHHHHSSGLVPRGSHMNIGDTLNHSLLNHPLMLSGSTCKTLSDYTNQWLVLYFYPKDNTPGSSTEGLEFNLLLPQFEQINATVLGVSRDSVKSHDSFCAKQGFTFPLVSDSDAILCKAFDVIKEKTMYGRQVIGIERSTFLIGPTHRIVEAWRQVKVPGHAEEVLNKLKAHAEQ”, the “soluble on expression in E. coli” value is on record as “soluble”.
The same measure for “MGSSHHHHHHSSGLVPRGSHMSQDVPGNLLDEIRILRSPKGYLYAGLPKFRALFGRDSIISSIQLIDLFPDIAQNTVIYLKDLQGRKLDYSIGEYPGKILHEYYDDEKIFLDRKRSIPWLNSRINYFSVDSTPLFILLIKNLFLRNLIDIEQFKDSIMMAMQFLIAYSSSDGLITYDKALLGAGLMSQSWRDGVGDIMDRLKSPVATVGVQGYFYESADFVLNLFPDSLIEESLPDLKDFYSKMREILENKFWLEETGYYGLAVDGDGVIEQAATSDPGHLIGSGILTRSRERDVIDRLFESDLLTDYGIRTLSAKDPRFDPKAYQRGSIWPQDNWIIADGIKRRGYLKEYRELRERLIAAYEYYGRMPEYFGVDRYGKIMDLSKLRIKPCYPQAWSTGAIINFVTFK”: “soluble”; for “MGSSHHHHHHSSGLVPRGSHMSSENIPLRVQFKRMKAAEWARSDVILLESEIGFETDTGFARAGDGHNRFSDLGYISPLDYNLLTNKPNIDGLATKVETAQKLQQKADKETVYTKAESKQELDKKLNLKGGVMTGQLKFKPAATVAYSSSTGGAVNIDLSSTRGAGVVVYSDNDTSDGPLMSLRTGKETFNQSALFVDYKGTTNAVNIAMRQPTTPNFSSALNITSGNENGSAMQLRGSEKALGTLKITHENPSIGADYDKNAAALSIDIVKKTNGAGTAAQGIYINSTSGTTGKLLRIRNLSDDKFYVKSDGGFYAKETSQIDGNLKLKDPTANDHAATKAYVDKAISELKKLILKK”: “soluble”.
